Test results reported in paper PMC5774706, “Investigation of the proton relay system operative in human cystosolic aminopeptidase P” (PLoS ONE, 2018).

How the values were obtained:
[1] = target: the molecule itself; assay: AUC; sedimentation velocity, 40000 rpm, 20°C, 10 mM Tris-HCl, absorbance at 280 nm, c(s) by Sedfit; protein at 1 mg/mL; dimer to monomers
[2] = target: the molecule itself; assay: AUC; sedimentation velocity, 40000 rpm, 20°C, 10 mM Tris-HCl, absorbance at 280 nm, c(s) by Sedfit; protein at 0.1 mg/mL; dimer to monomers
[3] = target: the molecule itself; assay: AUC; sedimentation velocity, 40000 rpm, 20°C, 10 mM Tris-HCl, absorbance at 280 nm, c(s) by Sedfit; protein at 0.1 mg/mL with 10 mM guanidine hydrochloride; dimer to monomers

Row | Protein | stoichiometry N [1] | dimer:monomer ratio [1] | dimer:monomer ratio [2] | dimer:monomer ratio (printed as monomer:dimer 1:1.5) [3] | dimer:monomer ratio (printed as monomer:dimer 1:0.67) [2]
1 | human cytosolic aminopeptidase P, wild-type (enzyme, UniProt Q9NQW7 1-623, looked up, human cytosolic aminopeptidase P (hcAMPP), encoded by XPNPEP1, residues M1 to H623, cloned into pET-28a (NdeI/HindIII); The His-tag is thrombin cleavable; also called hcAMPP; wild-type hcAMPP; source: E. coli Rosetta (DE3), purified (Ni2+ chelating column)) MPPKVTSELLRQLRQAMRNSEYVTEPIQAYIIPSGDAHQSEYIAPCDCRRAFVSGFDGSAGTAIITEEHAAMWTDGRYFLQAAKQMDSNWTLMKMGLKDTPTQEDWLVSVLPEGSRVGVDPLIIPTDYWKKMAKVLRSAGHHLIPVKENLVDKIWTDRPERPCKPLLTLGLDYTGISWKDKVADLRLKMAERNVMWFVVTALDEIAWLFNLRGSDVEHNPVFFSYAIIGLETIMLFIDGDRIDAPSVKEHLLLDLGLEAEYRIQVHPYKSILSELKALCADLSPREKVWVSDKASYAVSETIPKDHRCCMPYTPICIAKAVKNSAESEGMRRAHIKDAVALCELFNWLEKEVPKGGVTEISAADKAEEFRRQQADFVDLSFPTISSTGPNGAIIHYAPVPETNRTLSLDEVYLIDSGAQYKDGTTDVTRTMHFGTPTAYEKECFTYVLKGHIAVSAAVFPTGTKGHLLDSFARSALWDSGLDYLHGTGHGVGSFLNVHEGPCGISYKTFSDEPLEAGMIVTDEPGYYEDGAFGIRIENVVLVVPVKTKYNFNNRGSLTFEPLTLVPIQTKMIDVDSLTDKECDWLNNYHLTCRDVIGKELQKQGRQEALEWLIRETQPISKQH | 2 |  |  |  | 
2 | human cytosolic aminopeptidase P, Y527F mutant (enzyme, UniProt Q9NQW7 1-623, looked up, human cytosolic aminopeptidase P (hcAMPP), encoded by XPNPEP1, residues M1 to H623, with Y527F made by QuikChange mutagenesis of pET28a-hcAMPP; The His-tag is thrombin cleavable; no cleavage is described; also called Y527F hcAMPP; Tyr527Phe hcAMPP; source: E. coli Rosetta (DE3), purified (Ni2+ chelating column)) MPPKVTSELLRQLRQAMRNSEYVTEPIQAYIIPSGDAHQSEYIAPCDCRRAFVSGFDGSAGTAIITEEHAAMWTDGRYFLQAAKQMDSNWTLMKMGLKDTPTQEDWLVSVLPEGSRVGVDPLIIPTDYWKKMAKVLRSAGHHLIPVKENLVDKIWTDRPERPCKPLLTLGLDYTGISWKDKVADLRLKMAERNVMWFVVTALDEIAWLFNLRGSDVEHNPVFFSYAIIGLETIMLFIDGDRIDAPSVKEHLLLDLGLEAEYRIQVHPYKSILSELKALCADLSPREKVWVSDKASYAVSETIPKDHRCCMPYTPICIAKAVKNSAESEGMRRAHIKDAVALCELFNWLEKEVPKGGVTEISAADKAEEFRRQQADFVDLSFPTISSTGPNGAIIHYAPVPETNRTLSLDEVYLIDSGAQYKDGTTDVTRTMHFGTPTAYEKECFTYVLKGHIAVSAAVFPTGTKGHLLDSFARSALWDSGLDYLHGTGHGVGSFLNVHEGPCGISYKTFSDEPLEAGMIVTDEPGYFEDGAFGIRIENVVLVVPVKTKYNFNNRGSLTFEPLTLVPIQTKMIDVDSLTDKECDWLNNYHLTCRDVIGKELQKQGRQEALEWLIRETQPISKQH | 2 | 3.4 | 1.8 |  | 
3 | human cytosolic aminopeptidase P, R535A mutant (enzyme, UniProt Q9NQW7 1-623, looked up, human cytosolic aminopeptidase P (hcAMPP), encoded by XPNPEP1, residues M1 to H623, with R535A made by QuikChange mutagenesis of pET28a-hcAMPP; The His-tag is thrombin cleavable; no cleavage is described; also called R535A hcAMPP; Arg535Ala hcAMPP; source: E. coli Rosetta (DE3), purified (Ni2+ chelating column)) MPPKVTSELLRQLRQAMRNSEYVTEPIQAYIIPSGDAHQSEYIAPCDCRRAFVSGFDGSAGTAIITEEHAAMWTDGRYFLQAAKQMDSNWTLMKMGLKDTPTQEDWLVSVLPEGSRVGVDPLIIPTDYWKKMAKVLRSAGHHLIPVKENLVDKIWTDRPERPCKPLLTLGLDYTGISWKDKVADLRLKMAERNVMWFVVTALDEIAWLFNLRGSDVEHNPVFFSYAIIGLETIMLFIDGDRIDAPSVKEHLLLDLGLEAEYRIQVHPYKSILSELKALCADLSPREKVWVSDKASYAVSETIPKDHRCCMPYTPICIAKAVKNSAESEGMRRAHIKDAVALCELFNWLEKEVPKGGVTEISAADKAEEFRRQQADFVDLSFPTISSTGPNGAIIHYAPVPETNRTLSLDEVYLIDSGAQYKDGTTDVTRTMHFGTPTAYEKECFTYVLKGHIAVSAAVFPTGTKGHLLDSFARSALWDSGLDYLHGTGHGVGSFLNVHEGPCGISYKTFSDEPLEAGMIVTDEPGYYEDGAFGIAIENVVLVVPVKTKYNFNNRGSLTFEPLTLVPIQTKMIDVDSLTDKECDWLNNYHLTCRDVIGKELQKQGRQEALEWLIRETQPISKQH | 2 |  |  | 1.5 | 0.67
